# Source: patent US20140056903A1 (Regeneron, published 2014)
# B1: H4H2292S (antibody, human IgG4, V domains shown)
# VH: EVQLVESGGGVVQPGRSLRLSCAASGFTFSSYGMHWVRQAPGKGLEWVSFIWYDGSNKYYADSVKGRFTISRDNSKNTLYLQMNSLTAEDTAVYYCARRGILTGTTAFDIWGQGTMVTVSS
# VL: DIQMTQSPSSLSASVGDRVTITCRASQSISSYLNWYQQKPGKAPKLLIYAASSLQSGVPSRFSGSGSGTDFTLTIRSLIPEDFATYYCQQTYNTPFTFGPGTKVEIK
# notes: human IgG4 Fc (H4H)
# B2: H4H2342P (antibody, human IgG4, V domains shown)
# VH: EVQLLESGGGLVQPGGSLRLSCAASGFTFSTYAMSWVRQAPGKGLEWVSAIRGNGVNTYYGDSMKGRFTISRDNSKDTLYLQMNSLRAEDTAVYYCAKNKWELLVFEYWGQGTLVTVSS
# VL: DIQMTQSPSSLSASVGDRVTITCRASQDISNYLAWYQQKPGKVPKLLIYAASTLQSGVPFRFSGSGSGTDFTLTISSLQPEDVATYYCQKYNSAPPFGPGTKVDIK
# notes: human IgG4 Fc (H4H)
# B3: H4H2352S (antibody, human IgG4, V domains shown)
# VH: EVQLVQSGAEVKKPGASVKVSCKASGYTFTNYGITWVRQAPGQGLEWMGWISAYNGNTGYAQKFQGRVTMTTDTSTSTAYMELRSLRSDDTAVYYCAREDYDFWRAFDIWGQGTMVTVSS
# VL: EIVLTQSPGTLSLSPGERATLSCRASQSVSSTYLAWLQQKPGQAPRLLIYGASSRATGIPDRFSGSGSGTDFTLTINRLEPEDFAVYYCQQYAYSPYTFGQGTKLEIK
# notes: human IgG4 Fc (H4H); also called H4H2352S-1
# B4: H4H2212N (antibody, human IgG4, V domains shown)
# VH: EVQLLESGGGLVQPGGSLRLSCAASGFTFSSYAMSWVRQGPGKGLEWVSGISGSGGSTYNADSVKGRFTISRDNSKNTLYLQMNSLRAEDTAVYYCAKDSGTYWYYFDYWGQGILVTVSS
# VL: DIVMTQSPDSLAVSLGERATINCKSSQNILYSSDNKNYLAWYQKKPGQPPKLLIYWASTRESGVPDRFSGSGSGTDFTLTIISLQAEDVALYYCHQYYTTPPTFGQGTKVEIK
# notes: human IgG4 Fc (H4H)
# B5: H4H2350P (antibody, human IgG4, V domains shown)
# VH: QVQLQESGPGLVKPSETLSLTCTVSGGSISTYYWSWFRQPPGKGLEWIGYIYYSGSTNHNPSLKSRVTISVDTSKNQFSLKLRSVTAADTAVYYCARVGPVGWGSWGNFDYWGQGTLVTVSS
# VL: DIQLTQSPSFLSASVGDRVTITCWASQGISSYLAWSQQKPGKAPKLLIYAASTLQSGVPSRFSGSGSGTEFTLTISSLQPEDFATYYCQQLNSYPWTFGQGTKVEIK
# notes: human IgG4 Fc (H4H)
# B6: H4H2357S (antibody, human IgG4, V domains shown)
# VH: EVQLVESGGGLVQPGGSLRLSCAASTFTFSSYAMTWVRQAPGKGLEWVSSISGSGDSTYYADSVKGRFTISRDNSKNTLFLQMNSLRAEDTAVYYCAKKDGPGRYYVRYGMDVWGQGTTVTVSS
# VL: DIQMTQSPSSVSASVGDRVTITCRASQGISSWLAWYQQKPGKAPKLLIYTTSSLQSGVPSRFSGSGSGTDFTLTISSLQPEDFATYYCQQANSFPLTFGGGTKVDIK
# notes: human IgG4 Fc (H4H)
# B7: H4H2243N2 (antibody, human IgG4, V domains shown)
# VH: QVQLVQSGAEVKKPGASVKVSCKASGYTFTSYGIIWVRQAPGQGLEWMGWISGYNGNTNYAQNLQGRVTMTTDTSTTTAYMELRSLRSDDTAVYYCARWGIATRPYYYYGMDVWGQGTTVTVSS
# VL: DIQMTQSPSSLSASVGDRVTITCRASQDITNYLAWFQQKPGKAPKSLIYAASSLQSGVPSKFSGSGSGTDFTLTISSLQPEDFATYYCQQYNSYPPTFGPGTKVDIK
# notes: human IgG4 Fc (H4H)
# Target: T1, human GFRα3 expressed with a C-terminal myc-myc-hexahistidine tag (human, UniProt O60609 32-374, biotinylated (sites not given) in ELISA format 2 and in the Octet cross-competition; not in SPR)
# T1 construct: also called hGFRα3-mmh; hGFRα3-mmH
# Assay: blocking ELISA 2, biotin-hGFRα3-mmH to coated hARTEMIN-mmH + hRET-10His
# Description: The equilibrated sample solutions were then transferred to the hARTEMIN-mmH-coated plate. […] Absorbance was recorded at 450 nm on a Victor X5 plate reader (Perkin Elmer) to determine the amount of free hGFRα3-hFc in the pre-equilibrated hGFRα3-hFc-antibody solutions that was able to bind to the plate coated with hARTEMIN-mmH. IC₅₀ values, defined as the concentration of antibody required to reduce the signal from a constant concentration of hGFRα3-hFc by 50%, were calculated from the data using Prism software from GraphPad. The absorbance measured at the constant amount of 120 pM hGFRα3-hFc in the absence of anti-GFRα3 antibody is defined as 0% blocking and the absorbance with no added hGFRα3-hFc is defined as 100% blocking. The observed absorbance in the wells containing the highest antibody concentration was used to calculate the maximum blocking percent shown in the table.
# In the second ELISA format, the plates, samples and data were processed similarly as for the first format except both hARTEMIN-mmH and human RET with a C-terminal 10 histidine tag (hRET-10His; R&D Systems, #1168-CR/CF) were coated for the blocking ELISA experiment. The 96-well microtiter plates were coated with a mixture of 1.2 ug/ml hARTEMIN-mmH and 6.9 ug/ml hRET-10His proteins in PBS overnight at 4° C. and then blocked with a solution of 0.5% (w/v) BSA. A constant amount of biotinylated human GFRα3 with a C-terminal myc-myc-hexahistidine tag (biotin-hGFRα3-mmH; SEQ ID:370) at 1 nM was pre-mixed with varied amounts of anti-GFRα3 antibodies, ranging from 0 to ˜100 nM in serial dilutions, followed by a 1 hour incubation at RT to allow antibody-biotin-hGFRα3-mmH binding to reach equilibrium. The equilibrated samples were then transferred to the coated plate. After 1 hour of binding, the plate was washed, then the bound biotin-hGFRα3-mmH was detected using HRP conjugated streptavidin (Pierce, #N200), and colorimetric signals were developed using TMB HRP substrates.
% max blocking [%],IC50 [nM],Binder
100,1.76,B1
97,1.08,B2
100,0.761,B3
99,0.403,B4
91,1.29,B5
86,3.28,B6
95,1.12,B7

# Target: T1, human GFRα3 expressed with a C-terminal …
# Assay: Octet RED384; 25 µg/mL first antibody on streptavidin-captured biotin-hGFRα3-mmH
# Description: (§1) A cross-competition assay was conducted to assess the ability of select antibodies to compete with one another for binding to human GFRα3 using an Octet RED384 biosensor (Fortebio Inc.). The entire experiment was performed at 25° C. with the flow rate of 1000 rpm in Octet HBST buffer (0.01 M HEPES pH7.4, 0.15M NaCl, 3 mM EDTA, 0.05% v/v Surfactant P20, 0.1 mg/mL BSA). To assess whether 2 antibodies were able to compete with one another for binding to their respective epitopes on biotinylated recombinant human GFRα3 expressed with a C-terminal myc-myc-hexahistidine tag (biotin-hGFRα3-mmH; SEQ ID:370), around ˜1.2 nm of biotin-hGFRα3-mmH was first captured onto streptavidin-coated Octet sensor tips (Fortebio Inc, #18-5019) by submerging the tips for 1 minute into a 10 μg/mL solution of biotin-hGFRα3-mmH. The antigen coated sensor tips were then placed into wells containing 25 μg/mL solution of a first anti-GFRα3 monoclonal antibody for 4 minutes to saturate the biotin-hGFRα3-mmH surface. The sensor tips were then subsequently dipped into wells containing 25 μ/mL solution of a second anti-GFRα3 monoclonal antibody. The sensor tips were washed in Octet HBST buffer in between every step of the experiment. The real-time binding response was monitored during the course of the experiment and the binding response at the end of every step was recorded as shown in FIG. 9. The response of mAb-2 binding to biotin-hGFRα3-mmH pre-complexed with the first antibody was compared and competitive/non-competitive behavior of different anti-GFRα3 monoclonal antibodies was determined.
row,Amount of Antibody 1 bound (nm),Binder
1,2.82,B1
2,2.69,B2
3,2.74,B3
4,2.32,B4
5,3.31,B5
6,2.82,B6
7,2.42,B7

# Target: T1, human GFRα3 expressed with a C-terminal …
# Assay: Octet cross-competition; biotin-hGFRα3-mmH pre-saturated with first antibody H4H2294S
# Description: as §1
row,binding response of second antibody (nm),Binder
1,1.92,B1
2,0.01,B2
3,1.99,B3
4,1.92,B4
5,1.42,B5
6,0.03,B6
7,0.03,B7

# Target: T1, human GFRα3 expressed with a C-terminal …
# Assay: Octet cross-competition; biotin-hGFRα3-mmH pre-saturated with first antibody H4H2296S
# Description: as §1
row,binding response of second antibody (nm),Binder
1,1.87,B1
2,0.03,B2
3,2.01,B3
4,1.76,B4
5,1.27,B5
6,0.06,B6
7,0.06,B7

# Target: T1, human GFRα3 expressed with a C-terminal …
# Assay: Octet cross-competition; biotin-hGFRα3-mmH pre-saturated with first antibody H4H2212N
# Description: as §1
row,binding response of second antibody (nm),Binder
1,1.76,B1
2,2.17,B2
3,0.08,B3
4,0.05,B4
5,1.36,B5
6,2.38,B6
7,0.16,B7

# Target: T1, human GFRα3 expressed with a C-terminal …
# Assay: Octet cross-competition; biotin-hGFRα3-mmH pre-saturated with first antibody H4H2350P
# Description: as §1
row,binding response of second antibody (nm),Binder
1,1.74,B1
2,1.8,B2
3,2.06,B3
4,1.57,B4
5,0.25,B5
6,2.23,B6
7,1.72,B7

# Target: T1, human GFRα3 expressed with a C-terminal …
# Assay: Octet cross-competition; biotin-hGFRα3-mmH pre-saturated with first antibody H4H2355S
# Description: as §1
row,binding response of second antibody (nm),Binder
1,1.92,B1
2,0.06,B2
3,1.97,B3
4,1.95,B4
5,1.44,B5
6,0.16,B6
7,0.09,B7
